Results from paper doi:10.1101/815886.
Where “and” joins values, the source holds several entries; their conditions need not be identical. Equal values may be shown once. Read-outs that look alike come from different tables or passages of the source.

Columns and labels:
Conditions in all cases: remark: other sources report otherwise
[1] = target: T1, human CTC1-STN1-TEN1 (CST) heterotrimeric complex (human), Q2NKJ3; experiment: cryo-EM structure
T1 chain 1: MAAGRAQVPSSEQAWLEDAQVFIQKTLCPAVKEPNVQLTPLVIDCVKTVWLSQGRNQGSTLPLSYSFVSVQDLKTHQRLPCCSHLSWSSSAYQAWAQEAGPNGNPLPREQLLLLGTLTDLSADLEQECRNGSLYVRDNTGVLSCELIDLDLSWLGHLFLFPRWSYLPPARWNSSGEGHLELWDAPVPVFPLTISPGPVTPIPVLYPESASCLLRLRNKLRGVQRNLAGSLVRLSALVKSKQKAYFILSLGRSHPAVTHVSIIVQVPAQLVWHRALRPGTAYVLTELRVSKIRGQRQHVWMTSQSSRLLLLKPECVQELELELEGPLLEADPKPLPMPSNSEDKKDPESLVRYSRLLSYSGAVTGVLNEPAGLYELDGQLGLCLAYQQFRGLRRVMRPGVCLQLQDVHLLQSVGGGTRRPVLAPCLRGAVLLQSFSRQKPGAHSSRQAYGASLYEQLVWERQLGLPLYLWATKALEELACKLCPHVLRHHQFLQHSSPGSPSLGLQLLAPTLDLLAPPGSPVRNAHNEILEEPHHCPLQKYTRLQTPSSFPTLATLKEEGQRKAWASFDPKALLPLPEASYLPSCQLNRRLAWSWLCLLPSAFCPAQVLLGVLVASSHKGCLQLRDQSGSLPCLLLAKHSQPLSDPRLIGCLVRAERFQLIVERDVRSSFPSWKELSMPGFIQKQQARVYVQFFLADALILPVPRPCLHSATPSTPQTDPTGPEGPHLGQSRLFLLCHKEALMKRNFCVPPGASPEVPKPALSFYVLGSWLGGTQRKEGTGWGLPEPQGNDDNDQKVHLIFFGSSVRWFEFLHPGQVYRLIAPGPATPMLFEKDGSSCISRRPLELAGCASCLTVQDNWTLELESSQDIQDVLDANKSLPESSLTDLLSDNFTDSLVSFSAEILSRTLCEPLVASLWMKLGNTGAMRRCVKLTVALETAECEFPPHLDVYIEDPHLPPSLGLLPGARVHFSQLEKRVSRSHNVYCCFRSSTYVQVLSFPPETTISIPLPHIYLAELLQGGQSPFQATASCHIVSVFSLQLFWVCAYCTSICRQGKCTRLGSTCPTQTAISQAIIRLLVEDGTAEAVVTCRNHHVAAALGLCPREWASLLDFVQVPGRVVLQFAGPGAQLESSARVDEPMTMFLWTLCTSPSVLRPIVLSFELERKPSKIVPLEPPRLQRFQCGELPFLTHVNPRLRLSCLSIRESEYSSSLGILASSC
T1 chain 2: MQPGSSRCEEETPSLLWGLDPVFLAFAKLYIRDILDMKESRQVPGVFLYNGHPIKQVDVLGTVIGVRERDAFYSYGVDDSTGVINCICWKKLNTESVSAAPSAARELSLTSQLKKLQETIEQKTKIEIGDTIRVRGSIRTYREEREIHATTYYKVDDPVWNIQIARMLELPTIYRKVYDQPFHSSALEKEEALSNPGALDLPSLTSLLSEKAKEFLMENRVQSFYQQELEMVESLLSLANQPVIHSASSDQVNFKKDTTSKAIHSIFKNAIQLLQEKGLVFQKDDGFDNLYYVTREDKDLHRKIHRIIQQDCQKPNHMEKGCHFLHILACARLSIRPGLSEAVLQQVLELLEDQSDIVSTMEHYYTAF
T1 chain 3: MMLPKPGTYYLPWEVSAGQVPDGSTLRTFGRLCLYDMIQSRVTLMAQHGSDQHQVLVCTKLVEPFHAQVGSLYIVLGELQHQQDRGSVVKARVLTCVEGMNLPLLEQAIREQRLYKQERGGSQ

[2] = target: T1, human CTC1-STN1-TEN1 (CST) …; experiment: negative-stain EM single-particle analysis
[3] = target: T1, human CTC1-STN1-TEN1 (CST) …
[4] = target: T1, human CTC1-STN1-TEN1 (CST) …; experiment: negative-stain EM single-particle analysis

B1: human CTC1-STN1-TEN1 (CST) heterotrimeric complex, Q2NKJ3;Q9H668;Q86WV5 (complex)
chain 1: MAAGRAQVPSSEQAWLEDAQVFIQKTLCPAVKEPNVQLTPLVIDCVKTVWLSQGRNQGSTLPLSYSFVSVQDLKTHQRLPCCSHLSWSSSAYQAWAQEAGPNGNPLPREQLLLLGTLTDLSADLEQECRNGSLYVRDNTGVLSCELIDLDLSWLGHLFLFPRWSYLPPARWNSSGEGHLELWDAPVPVFPLTISPGPVTPIPVLYPESASCLLRLRNKLRGVQRNLAGSLVRLSALVKSKQKAYFILSLGRSHPAVTHVSIIVQVPAQLVWHRALRPGTAYVLTELRVSKIRGQRQHVWMTSQSSRLLLLKPECVQELELELEGPLLEADPKPLPMPSNSEDKKDPESLVRYSRLLSYSGAVTGVLNEPAGLYELDGQLGLCLAYQQFRGLRRVMRPGVCLQLQDVHLLQSVGGGTRRPVLAPCLRGAVLLQSFSRQKPGAHSSRQAYGASLYEQLVWERQLGLPLYLWATKALEELACKLCPHVLRHHQFLQHSSPGSPSLGLQLLAPTLDLLAPPGSPVRNAHNEILEEPHHCPLQKYTRLQTPSSFPTLATLKEEGQRKAWASFDPKALLPLPEASYLPSCQLNRRLAWSWLCLLPSAFCPAQVLLGVLVASSHKGCLQLRDQSGSLPCLLLAKHSQPLSDPRLIGCLVRAERFQLIVERDVRSSFPSWKELSMPGFIQKQQARVYVQFFLADALILPVPRPCLHSATPSTPQTDPTGPEGPHLGQSRLFLLCHKEALMKRNFCVPPGASPEVPKPALSFYVLGSWLGGTQRKEGTGWGLPEPQGNDDNDQKVHLIFFGSSVRWFEFLHPGQVYRLIAPGPATPMLFEKDGSSCISRRPLELAGCASCLTVQDNWTLELESSQDIQDVLDANKSLPESSLTDLLSDNFTDSLVSFSAEILSRTLCEPLVASLWMKLGNTGAMRRCVKLTVALETAECEFPPHLDVYIEDPHLPPSLGLLPGARVHFSQLEKRVSRSHNVYCCFRSSTYVQVLSFPPETTISIPLPHIYLAELLQGGQSPFQATASCHIVSVFSLQLFWVCAYCTSICRQGKCTRLGSTCPTQTAISQAIIRLLVEDGTAEAVVTCRNHHVAAALGLCPREWASLLDFVQVPGRVVLQFAGPGAQLESSARVDEPMTMFLWTLCTSPSVLRPIVLSFELERKPSKIVPLEPPRLQRFQCGELPFLTHVNPRLRLSCLSIRESEYSSSLGILASSC
chain 2: MQPGSSRCEEETPSLLWGLDPVFLAFAKLYIRDILDMKESRQVPGVFLYNGHPIKQVDVLGTVIGVRERDAFYSYGVDDSTGVINCICWKKLNTESVSAAPSAARELSLTSQLKKLQETIEQKTKIEIGDTIRVRGSIRTYREEREIHATTYYKVDDPVWNIQIARMLELPTIYRKVYDQPFHSSALEKEEALSNPGALDLPSLTSLLSEKAKEFLMENRVQSFYQQELEMVESLLSLANQPVIHSASSDQVNFKKDTTSKAIHSIFKNAIQLLQEKGLVFQKDDGFDNLYYVTREDKDLHRKIHRIIQQDCQKPNHMEKGCHFLHILACARLSIRPGLSEAVLQQVLELLEDQSDIVSTMEHYYTAF
chain 3: MMLPKPGTYYLPWEVSAGQVPDGSTLRTFGRLCLYDMIQSRVTLMAQHGSDQHQVLVCTKLVEPFHAQVGSLYIVLGELQHQQDRGSVVKARVLTCVEGMNLPLLEQAIREQRLYKQERGGSQ
[1]
  stoichiometry N: 10
[2]
  stoichiometry N: 4 and 2
[3]
  stoichiometry N: 10
[4]
  stoichiometry N: 10
